Data from publication PMC11573645.

Target: complement component C3b, site-specifically biotinylated at Cys-1010 (human) (UniProt P01024)
Assay: SPR

| Substance | Ka-1 (two-state model, first step, association) | Kd | Kd-1 (two-state model, first step, dissociation) | Kd-2 (two-state model, second step, reverse) | Ka-2 (two-state model, second step, forward) |
| --- | --- | --- | --- | --- | --- |
| Native FB purified from human serum (natural protein) | 168000 M⁻¹ s⁻¹ | 109 nM | 0.0702 s⁻¹ | 0.00249 s⁻¹ |  |
| recombinant FB with D279G and K350N (from UniProt P00751 26-764) (natural protein) | 225000 M⁻¹ s⁻¹ |  | 0.0526 s⁻¹ | 0.0045 s⁻¹ |  |
| recombinant FB with D279G mutation (from UniProt P00751 26-764) (natural protein) | 304000 M⁻¹ s⁻¹ |  | 0.0376 s⁻¹ | 0.00941 s⁻¹ |  |
| recombinant FB with D279G, K350N, and S699A (from UniProt P00751 26-764) (natural protein) | 256000 M⁻¹ s⁻¹ | 104 nM | 0.0469 s⁻¹ | 0.00836 s⁻¹ |  |
| recombinant FB with F286L mutation (from UniProt P00751 26-764) (natural protein) | 551000 M⁻¹ s⁻¹ |  | 0.0229 s⁻¹ | 0.0083 s⁻¹ | 0.0289 s⁻¹ |
| recombinant FB with K323E mutation (from UniProt P00751 26-764) (natural protein) | 280000 M⁻¹ s⁻¹ | 159 nM | 0.0807 s⁻¹ | 0.00723 s⁻¹ |  |
| recombinant FB with K350N mutation (from UniProt P00751 26-764) (natural protein) | 131000 M⁻¹ s⁻¹ | 322 nM | 0.0995 s⁻¹ | 0.00419 s⁻¹ |  |
| recombinant wild-type FB (from UniProt P00751 26-764) (natural protein) | 325000 M⁻¹ s⁻¹ |  | 0.0796 s⁻¹ | 0.0138 s⁻¹ |  |
